Results reported in US20160257755A1 (TRACON PHARMACEUTICALS, published 2016).

Columns and labels:
[1] = biological target: T1, recombinant endoglin (BIAcore analyte, Example 2) (UniProt P17813 26-586, limits assumed); test: SPR (BIAcore), antibody captured on protein A, recombinant endoglin as analyte
T1 sequence (looked up): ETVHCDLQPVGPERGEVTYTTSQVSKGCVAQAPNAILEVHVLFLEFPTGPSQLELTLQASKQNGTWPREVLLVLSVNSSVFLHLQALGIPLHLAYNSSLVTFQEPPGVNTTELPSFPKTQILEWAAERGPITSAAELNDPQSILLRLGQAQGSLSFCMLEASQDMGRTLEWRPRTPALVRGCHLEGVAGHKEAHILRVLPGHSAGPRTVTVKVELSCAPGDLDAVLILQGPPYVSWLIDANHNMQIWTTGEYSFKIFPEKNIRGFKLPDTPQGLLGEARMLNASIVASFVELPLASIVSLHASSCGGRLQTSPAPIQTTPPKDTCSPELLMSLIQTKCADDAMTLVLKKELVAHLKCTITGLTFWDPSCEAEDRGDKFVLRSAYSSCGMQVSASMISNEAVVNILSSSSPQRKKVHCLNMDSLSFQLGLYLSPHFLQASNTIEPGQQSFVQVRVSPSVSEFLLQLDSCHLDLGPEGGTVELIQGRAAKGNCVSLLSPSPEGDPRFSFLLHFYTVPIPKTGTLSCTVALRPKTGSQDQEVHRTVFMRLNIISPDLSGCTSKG
Procedure: Affinity of antibodies can be assessed using, for example, BIAcore analysis using standard protocols. Briefly, protein A is chemically coupled to a BIAcore CM5 chip, with the amount of protein A immobilized corresponding to 2000 RU. Subsequent steps are performed in a running buffer of 10 mM HEPES, 150 mM NaCl, 3 mM EDTA, 0.05% TWEEN, pH=7.4, at 25 degrees Celsius using a 10 Hz data collection rate. […] Start-up cycles are performed using running buffer at a flow rate of 40 μL/min, a contact time of 90 seconds and a dissociation time of 90 seconds. Sample cycles are performed using recombinant endoglin at concentrations ranging from 0 to 40 nM. Endoglin is passed over the BIAcore chip containing captured antibody at a flow rate of 40 μL/min with a contact time of 525 seconds and dissociation time of 2500 seconds. […] Regeneration of the chip is accomplished using 10 mM glycine pH=1.7. Data analysis is performed using BIAcore T100 Evaluation Software v1.1 Signals generated using BIAcore chips with different captured antibody densities are compared and data generated in the absence of recombinant endoglin are used to adjust for the intraassay blank signal. For fitting of the data, the Rₘₐₓ is allowed to float to account for variation in capture levels of each antibody in each cycle. Data from each capture density is fitted simultaneously during analysis of each antibody.

[2] = biological target: T2, human CD105 (endoglin), R&D Systems Cat. No. 1097-EN (human, UniProt P17813 26-586); test: direct ELISA, biotinylated TRC205 on human CD105 captured by anti-CD105, streptavidin-HRP detection
T2 construct: Bought protein, captured on the plate by mouse anti-human CD105 (Southern Biotechnologies 9811-01); also called human endoglin
T2 sequence (looked up): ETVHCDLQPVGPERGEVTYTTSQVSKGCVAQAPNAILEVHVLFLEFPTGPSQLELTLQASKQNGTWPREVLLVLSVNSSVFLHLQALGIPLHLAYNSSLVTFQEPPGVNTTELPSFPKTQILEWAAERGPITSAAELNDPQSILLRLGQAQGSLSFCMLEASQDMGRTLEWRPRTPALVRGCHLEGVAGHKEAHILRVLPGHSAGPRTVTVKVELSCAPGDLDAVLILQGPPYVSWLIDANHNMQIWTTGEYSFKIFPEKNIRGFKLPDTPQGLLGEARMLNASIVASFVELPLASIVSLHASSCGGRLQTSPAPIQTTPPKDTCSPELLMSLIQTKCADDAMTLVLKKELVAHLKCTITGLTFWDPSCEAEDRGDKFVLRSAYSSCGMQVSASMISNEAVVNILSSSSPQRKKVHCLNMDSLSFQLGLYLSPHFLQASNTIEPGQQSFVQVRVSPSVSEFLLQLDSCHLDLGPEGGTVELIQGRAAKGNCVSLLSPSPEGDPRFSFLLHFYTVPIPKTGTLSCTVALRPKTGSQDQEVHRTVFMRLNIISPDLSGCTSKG
Procedure: (§1) OD450 nm values were measured on a Dynex MRX TCII plate reader.

[3] = biological target: T2, human CD105 (endoglin), R&D Systems …; test: competition ELISA on captured human CD105, unlabelled TRC205 against biotinylated TRC205 (55 ng/ml); unlabelled TRC205 as competitor, in nM
Procedure: as §1

[4] = biological target: T2, human CD105 (endoglin), R&D Systems …; test: competition ELISA on captured human CD105 against biotinylated chimeric anti-CD105 (6.25 ng/ml); streptavidin-HRP/TMB, absorbance at 450 nm
Procedure: FIGS. 6A-6F. Anti-CD105 competition ELISA with humanized and humanized/deimmunized antibodies. […] Binding was detected via streptavidin-HRP and TMB substrate. Absorbance (OD) at 450 nm was measured on a plate reader and this was plotted against the test antibody concentration.
as §1

[5] = biological target: T3, mouse endoglin, R&D Systems Cat. No. 1320-EN-025 (mouse, UniProt Q63961 27-581); test: competition ELISA on coated mouse endoglin, competitor biotinylated M1043 (40 ng/ml)
T3 construct: Coated directly on the plate at 1 ug/ml; also called murine endoglin
T3 sequence (looked up): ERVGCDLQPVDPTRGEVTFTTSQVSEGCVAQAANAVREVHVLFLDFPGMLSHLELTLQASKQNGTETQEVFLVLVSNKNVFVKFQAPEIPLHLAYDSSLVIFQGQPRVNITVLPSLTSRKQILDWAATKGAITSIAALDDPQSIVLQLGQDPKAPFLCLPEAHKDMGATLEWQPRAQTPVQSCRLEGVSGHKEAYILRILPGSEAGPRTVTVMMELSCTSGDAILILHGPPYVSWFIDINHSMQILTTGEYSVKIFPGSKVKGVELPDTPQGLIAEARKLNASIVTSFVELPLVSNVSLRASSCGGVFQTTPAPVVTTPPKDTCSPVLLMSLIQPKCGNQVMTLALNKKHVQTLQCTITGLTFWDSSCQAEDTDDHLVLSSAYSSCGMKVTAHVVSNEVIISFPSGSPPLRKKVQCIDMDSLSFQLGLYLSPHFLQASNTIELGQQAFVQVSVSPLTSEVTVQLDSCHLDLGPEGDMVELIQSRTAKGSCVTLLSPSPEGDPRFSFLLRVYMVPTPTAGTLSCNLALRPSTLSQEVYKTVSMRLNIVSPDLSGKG
Procedure: Nunc Immuno MaxiSorp 96 well flat bottom plates (Fisher Cat. No. DIS-971-030J) were coated with mouse endoglin (R&D Systems, Cat. No. 1320-EN-025) at 1μg/ml in PBS overnight at 4° C. The following day the plate was washed three times with PBST before blocking with PBST/3% Marvel at room temperature for 1 hour. […] Binding of the biotinylated antibody was detected via streptavidin-HRP (Sigma, Cat. No. 55512) and TMB substrate (Sigma, Cat. No. T0440). OD450 nm values were measured on a Dynex MRX TCII plate reader.

[6] = biological target: T2, human CD105 (endoglin), R&D Systems …; test: competition ELISA on captured human CD105, human BMP9 against biotinylated TRC205 (55 ng/ml); human BMP9 as competitor, in nM
Procedure: as §1

[7] = biological target: T3, mouse endoglin, R&D Systems Cat. No. …; test: direct ELISA on coated mouse endoglin, anti-rat IgG peroxidase detection
Procedure: The following day the plate was washed three times with PBST before blocking with PBST/3% Marvel at room temperature for 1 hour. […] Binding of the antibodies was detected via anti-rat IgG peroxidase (Sigma, Cat. No. A9037) and TMB single solution substrate (Invitrogen, Cat. No. 00-2023). The reaction was stopped by adding 3 M HCl and OD450 nm values were measured on a Dynex MRX TCII plate reader.

Binder	Kd [1]	koff [1]	kon [1]	further results
chimeric anti-endoglin antibody (TRC105) (antibody, V domains shown, also called chimeric anti-CD105; c-SN6j) VH: EVKLEESGGGLVQPGGSMKLSCAASGFTFSDAWMDWVRQSPEKGLEWVAEIRSKASNHATYYAESVKGRFTISRDDSKSSVYLQMNSLRAEDTGIYYCTRWRRFFDSWGQGTTLTVSS VL: QIVLSQSPAILSASPGEKVTMTCRASSSVSYMHWYQQKPGSSPKPWIYATSNLASGVPVRFSGSGSGTSYSLTISRVEAEDAATYYCQQWSSNPLTFGAGTKLELK	0.6 nM	3.28e-05 s⁻¹	54700 M⁻¹ s⁻¹	
TRC205 antibody (antibody, IgG4, V domains shown, Humanized and deimmunized IgG4; also called biotinylated TRC205; unlabelled TRC205) VH: EVQLVESGGGLVKPGGSLRLSCAASGFTFSDAWMDWVRQAPGKGLEWVGEARSKASNHATYYAESVKGRFTISRDDSKNTLYLQMNSLKTEDTAVYYCTRWRRFFDSWGQGTLVTVSS VL: DIQMTQSPSSLSASVGDRATITCRASSSVSYMHWYQQKPGKAPKPWAYATSNLASGVPSRFSGSGSGTDYTLTISSLQPEDFATYYCQQWSSNPLTFGGGTKVEIK				EC50 [2]: 0.046 µg/mL; IC50 [3]: 1.7 nM
humanized/deimmunized anti-endoglin antibody VK1AAVH1R (antibody, human IgG1, V domains shown) VH: EVQLVESGGGLVKPGGSLRLSCAASGFTFSDAWMDWVRQAPGKGLEWVGEIRSRASNHATYYAESVKGRFTISRDDSKNTLYLQMNSLKTEDTAVYYCTRWRRFFDSWGQGTLVTVSS VL: DIQMTQSPSSLSASVGDRATITCRASSSVSYMHWYQQKPGKAPKPWAYATSNLASGVPSRFSGSGSGTDYTLTISSLQPEDFATYYCQQWSSNPLTFGGGTKVEIK	0.533 nM	3.41e-05 s⁻¹	64000 M⁻¹ s⁻¹	
VK2SSVH1Q (antibody, V domains shown, humanized/deimmunized anti-endoglin antibody variant) VH: EVQLVESGGGLVKPGGSLRLSCAASGFTFSDAWMDWVRQAPGKGLEWVGEIRSQASNHATYYAESVKGRFTISRDDSKNTLYLQMNSLKTEDTAVYYCTRWRRFFDSWGQGTLVTVSS VL: DIQLTQSPSSLSASVGDRVTISCRASSSVSYMHWYQQKPGKAPKPWIYASSNLASGVPSRFSGSGSGTDYTLTISSLQPEDFATYYCQQWSSNPLTFGGGTKVEIK				binding result [4]: binds
humanized/deimmunized anti-endoglin antibody VK1AAVH1A2 (antibody, V domains shown, It has the same variable domains as TRC205, which is IgG4) VH: EVQLVESGGGLVKPGGSLRLSCAASGFTFSDAWMDWVRQAPGKGLEWVGEARSKASNHATYYAESVKGRFTISRDDSKNTLYLQMNSLKTEDTAVYYCTRWRRFFDSWGQGTLVTVSS VL: DIQMTQSPSSLSASVGDRATITCRASSSVSYMHWYQQKPGKAPKPWAYATSNLASGVPSRFSGSGSGTDYTLTISSLQPEDFATYYCQQWSSNPLTFGGGTKVEIK	0.706 nM	3.25e-05 s⁻¹	46000 M⁻¹ s⁻¹	
VK2SSVH1S (antibody, V domains shown, humanized/deimmunized anti-endoglin antibody variant) VH: EVQLVESGGGLVKPGGSLRLSCAASGFTFSDAWMDWVRQAPGKGLEWVSEIRSKASNHATYYAESVKGRFTISRDDSKNTLYLQMNSLKTEDTAVYYCTRWRRFFDSWGQGTLVTVSS VL: DIQLTQSPSSLSASVGDRVTISCRASSSVSYMHWYQQKPGKAPKPWIYASSNLASGVPSRFSGSGSGTDYTLTISSLQPEDFATYYCQQWSSNPLTFGGGTKVEIK				binding result [4]: binds
humanized/deimmunized anti-endoglin antibody VK1AAVH1Q (antibody, human IgG1, V domains shown) VH: EVQLVESGGGLVKPGGSLRLSCAASGFTFSDAWMDWVRQAPGKGLEWVGEIRSQASNHATYYAESVKGRFTISRDDSKNTLYLQMNSLKTEDTAVYYCTRWRRFFDSWGQGTLVTVSS VL: DIQMTQSPSSLSASVGDRATITCRASSSVSYMHWYQQKPGKAPKPWAYATSNLASGVPSRFSGSGSGTDYTLTISSLQPEDFATYYCQQWSSNPLTFGGGTKVEIK	0.85 nM	3.03e-05 s⁻¹	35600 M⁻¹ s⁻¹	
VK2SAVH1S (antibody, V domains shown, humanized/deimmunized anti-endoglin antibody variant) VH: EVQLVESGGGLVKPGGSLRLSCAASGFTFSDAWMDWVRQAPGKGLEWVSEIRSKASNHATYYAESVKGRFTISRDDSKNTLYLQMNSLKTEDTAVYYCTRWRRFFDSWGQGTLVTVSS VL: DIQLTQSPSSLSASVGDRVTISCRASSSVSYMHWYQQKPGKAPKPWAYATSNLASGVPSRFSGSGSGTDYTLTISSLQPEDFATYYCQQWSSNPLTFGGGTKVEIK				binding result [4]: binds
mouse BMP9 (R&D Systems, Cat. No. 5566-BP-010) (ligand, UniProt Q9WV56 319-428, looked up) STGASSHCQKTSLRVNFEDIGWDSWIIAPKEYDAYECKGGCFFPLADDVTPTKHAIVQTLVHLKFPTKVGKACCVPTKLSPISILYKDDMGVPTLKYHYEGMSVAECGCR				binding result [5]: binds
human BMP9 (R&D Systems Cat. No. 3209-BP-010) (ligand, UniProt Q9UK05 320-429, looked up) SAGAGSHCQKTSLRVNFEDIGWDSWIIAPKEYEAYECKGGCFFPLADDVTPTKHAIVQTLVHLKFPTKVGKACCVPTKLSPISVLYKDDMGVPTLKYHYEGMSVAECGCR				IC50 [6]: 14.6 nM
M1043 antibody (antibody, rat IgG1, V domains shown, also called Antibody M1043; biotinylated M1043) VH: QVQLQQSGAELVKPGSSVKISCKASGYTFTSYDMHWIKQQPGNGLEWIGWIYPGNGNTKYNQKFNGKATLTADKSSSTAYMQLSSLTSEDSAVYFCARGKFGVGDYWGQGVMVTVSS VL: DTVLTQSPALAVSPGERVSISCRASEGVNSYMHWYQQKPGQQPKLLIYIASNLASGVPARFSGSGSGTDFTLTIDPVEADDTATYFCQQSWNDPYTFGAGTKLELKR				binding result [7]: binds
